Assay results taken from patent US6699969B1, “Assays for the detection of microtubule depolymerization inhibitors” (The Regents of the University of California, priority 1998, dated 2004).

Experiments:
[1] = ATPase assay (modified malachite green method); assay type: biochemical
Method: (§1) ATPase activity was measured by a modified malachite green method (Kodama et al. (1986) J. Biochem. 99: 1465-1472). ATPase reactions of 50-100 μL were carried out in a buffer previously used for measuring the ATPase activity of native katanin [20 mM K-HEPES pH 8.0, 25 mM K-Glutamate, 2 mM MgCl2, 10% glycerol (v/v), 0.02% Triton X-100 (w/v), 1 mg/ml BSA] (McNally and Vale (1993) Cell, 75: 419-429), except that soybean trypsin inhibitor (SBTI) was replaced by BSA as a carrier protein because SBTI increased background phosphate contamination. An ATP regenerating system consisting of 0.5-1.0 mM phospho-enol pyruvate and 2U pyruvate kinase was included to minimize the inhibition by ADP observed previously for native katanin (McNally and Vale (1993) Cell, 75; 419-429). Microtubules were prepared from bovine brain tubulin (Hyman el al. (1 990) Meth. Enzymol. 196: 303-319; Williams and Lee (1982) Meth Enzymol. 85B: 376-385). After assembly, microtubules were sedimented (230,000×g; 10 min), resuspended in ATPase buffer lacking BSA, and the polymers were resuspended by repeated passage through a 27 gauge needle. Microtubule concentration was determined by measuring the absorbance at 275 nm in 6M guanidine HCl by using a molecular mass of 110 kDa and an extinction coefficient of 1.03 ml*mg^−1*cm^−1 (Hackney (1988) Proc. Natl. Acad. Sci. USA, 85: 6314-6318). […]

[2] = tested on: Taxol-stabilized, rhodamine-labeled microtubules; experiment: Microscope-based microtubule severing assay; assay type: biochemical
Method: Microscope-based severing assays were performed using previously published procedures (McNally and Vale (1993) Cell, 75: 419-429), except that microtubules were immobilized by first perfusing flow cells with a bacterially expressed kinesin mutant that binds strongly to microtubules but is unable to hydrolyze ATP (K560, G234A mutant; R. Vale and E. Taylor, unpublished results). Assays were performed in 20 mM Hepes (pH 7.5), 2 mM MgCl2, 1 mM ATP with an oxygen scavenger system consisting of glucose oxidase (220 μg/ml), catalase (36 μg/ml), glucose (22.5 mM), and 2-mercaptoethanol (71.5 mM). Images were captured using a cooled, slow-scan CCD (Photometerics) and processed using Adobe Photoshop.

[3] = literature values; cited from earlier work
microtubules = experiment: DAPI fluorescence microtubule disassembly (severing) assay; assay type: biochemical, bovine; conditions: 2 μM microtubules, FIG. 5C
Method: as §1, with “Microtubules were prepared from bovine brain tubulin (Hyman el al. (1 990) Meth. Enzymol. 196: 303-319; Williams and Lee (1982) Meth Enzymol. 85B: 376-385). After assembly, microtubules were sedimented (230,000×g; 10 min), resuspended in ATPase buffer lacking BSA, and the polymers were resuspended by repeated passage through a 27 gauge needle.” left out
DAPI severing assays were performed using conditions where the change in fluorescence intensity was linear with the amount of tubulin polymer added (Heusele et al. (1987) Eur. J. Biochem. 165: 613-620). […] The reaction volume was 80 μL, and. fluorescence intensity was measured by exciting at 370 nm and measuring the emission at 450 nm using a model 8100 fluorimeter. […]

B1: p60: S. purpuratus katanin 60 kDa subunit, 516 a.a. AAA ATPase (SEQ ID NO: 1), baculovirus-expressed with N-terminal His(6) tag (protein, listed as Strongylocentrotus purpuratus)
chain: MSVDEICENTKMGREYALLGNYETSLVYYQGVLQQIQKLLTSVHEPQRKHQWQTIRQELSQEYEHVKNITKTLNGFKSEPAAPEPAPNHGRAAPFSHHQHAAKPAAAEPARDPDVWPPPTPVDHRPSPPYQRAARKDPPRRSEPSKPANRAPGNDRGGRGPSDRRGDARSGGGGRGGARGSDKDKNRGGKSDKDKKAPSGEEGDEKKFDPAGYDKDLVENLERDIVQRNPNVHWADIAGLTEAKRLLEEAVVLPLWMPDYFKGIRRPWKGVLMVGPPGTGKTMLAKAVATECGTTFFNVSSASLTSKYHGESEKLVRLLFEMARFYAPSTIFIDEIDSICSKRGTGSEHEASRRVKSELLIQMDGVSGPSAGEESSKMVMVLAATNFPWDIDEALRRRLEKRIYIPLPEIDGREQLLRINLKEVPLADDIDLKSIAEKMDGYSGADITNVCRDASMMAMRRRIQGLRPEEIRHIPKEELNQPSTPADFLLALQKVSKSVGKEDLVKYMAWMEEFGSV
modifications: N-terminal His6 tag; katanin p60 subunit
- microtubule concentration at peak stimulation of ATP turnover [1]: ~2 μM tubulin
- time until microtubules were completely disassembled ([2]; 0.1 μM protein): 5 min

B2: p97: AAA ATPase cited for comparison (Peters et al. 1992) (protein, UniProt P23787 1-805, looked up)
Transitional endoplasmic …: MASGSDTKSDDLSTAILKQKSRPNRLIVDESINEDNSMVSLSQAKMDELQLFRGDTVLLKGKKRREAVCIVLSDDTCSDEKIRMNRVVRNNLRVRLGDVISIQPCPDVKYGKRVHVLPIDDTVEGITGNLFEVYLKPYFLEAYRPIRKGDIFLVRGGMRAVEFKVVETDPSPYCIVAPDTVIHCEGEPIKREDEEESLNEVGYDDIGGCRKQLAQIKEMVELPLRHPALFKAIGVKPPRGILLYGPPGTGKTLIARAVANETGAFFFLINGPEIMSKLAGESESNLRKAFEEAEKNAPAIIFIDELDAIAPKREKTHGEVERRIVSQLLTLMDGLKQRAHVIVMAATNRPNSIDPALRRFGRFDREVDIGIPDSTGRLEILQIHTKNMKLSDDVDLEQVANETHGHVGADLAALCSEAALQAIRKKMDLIDLEDETIDAEVMNSLAVTMDDFRWALSQSNPSALRETVVEVPQVTWEDIGGLEDVKRELQELVQYPVEHPDKFLKFGMTPSKGVLFYGPPGCGKTLLAKAIANECQANFISIKGPELLTMWFGESEANVREIFDKARQAAPCVLFFDELDSIAKARGGNIGDGGGAADRVINQILTEMDGMSIKKNVFIIGATNRPDIIDPAILRPGRLDQLIYIPLPDEKSRMAILKANLRKSPVAKDVDVDFLAKMTNGFSGADLTEICQRACKLAIRESIENEIRRERDRQTNPSAMEVEEDDPVPEIRRDHFEEAMRFARRSVSDNDIRKYEMFAQTLQQSRGFGSFRFPAGGQSGAGPSPGAGGGSGGGHFTEEDDDLYG
- ATPase activity of other AAA proteins [3]: 1 ATP/sec

B3: p80: S. purpuratus katanin 80 kDa subunit, 690 a.a. polypeptide with six WD40 repeats (SEQ ID NO: 2) (protein, listed as Strongylocentrotus purpuratus)
chain: MATKRAWKLQELVAHSSNVNCLALGPMSGRVMVTGGEDKKVNLWAVGKQNCIISLSGHTSPVDSVKFNSSEELVVAGSQSGTMKIYDLEPAKIVRTLTGHRNSIRCMDFHPFGEFVASGSTDTNVKLWDVRRKGCIYTYKGHSDQVNMIKFSPDGKWLVTASEDTTIKLWDLTMGKLFQEFKNHTGGVTGIEFHPNEFLLASGSSDRTVQFWDLETFQLVSSTSPGASAVRSISFHPDGSYLFCSSQDMLHAFGWEPIRCFDTFSVFWGKVADTVIASTQLIGASFNATNVSVYVADLSRMSTTGIAQEPQSQPSKTPSGGAEEVPSKPLTASGRKNFVRERPHTTSSKQRQPDVKSEPERQSPTQDEGVKDDDATDIKDPDSYAKIFSPKTRVDHSPERNAQPFPAPLDVPGAQEPEPFKHPPKPAAAAAVAPVSRAPAPSASDWQPAQANPAPNRVPAATKPVPAQEVAPSRKPDPISTIIPSDRNKPANLDMDAFLPPAHAQQAPRVNAPASRKQSDSERIEGLRKGHDSMCQVLSSRHRNLDVVRAIWTAGDAKTSVESVVNMKDQAILVDILNIMLLKKSLWNLDMCVVVLPRLKELLSSKYENYVHTSCACLKLILKNFTSLFNQNIKCPPSGIDITREERYNKCSKCYSYLIATRGYVEEKQHVSGKLGSSFRELHLLLDQLE
modifications: katanin p80 subunit
- change in DAPI fluorescence (microtubules): did not cause a change in fluorescence
- ATPase activity ([1]; baculovirus-expressed subunit alone): no detectable ATPase activity
- microtubule severing ([2]; concentrations 5-fold higher than those used for p60 (0.5 μM)): unable to sever microtubules
